In patent US20090099029A1, “Methods and substrates for conducting assays” (Invitrogen Corporation, priority 2005, published 2009):

B1: MINK1 (protein)
chain: MGDPAPARSLDDIDLSALRDPAGIFELVEVVGNGTYGQVYKGRHVKTGQLAAIKVMDVTEDEEEEIKQEINMLKKYSHHRNIATYYGAFIKKSPPGNDDQLWLVMEFCGAGSVTDLVKNTKGNALKEDCIAYICREILRGLAHLHAHKVIHRDIKGQNVLLTENAEVKLVDFGVSAQLDRTVGRRNTFIGTPYWMAPEVIACDENPDATYDYRSDIWSLGITAIEMAEGAPPLCDMHPMRALFLIPRNPPPRLKSKKWSKKFIDFIDTCLIKTYLSRPPTEQLLKFPFIRDQPTERQVRIQLKDHIDRSRKKRGEKEETE
modifications: left off: a dimerising Fc or GST
B2: MAPKAPK3 (protein)
chain: MDGETAEEQGGPVPPPVAPGGPGLGGAPGGRREPKKYAVTDDYQLSKQVLGLGVNGKVLECFHRRTGQKCALKLLYDSPKARQEVDHHWQASGGPHIVCILDVYENMHHGKRCLLIIMECMEGGELFSRIQERGDQAFTEREAAEIMRDIGTAIQFLHSHNIAHRDVKPENLLYTSKEKDAVLKLTDFGFAKETTQNALQTPCYTPYYVAPEVLGPEKYDKSCDMWSLGVIMYILLCGFPPFYSNTGQAISPGMKRRIRLGQYGFPNPEWSEVSEDAKQLIRLLLKTDPTERLTITQFMNHPWINQSMVVPQTPLHTARVLQEDKDHWDEVKEEMTSALATMRVDYDQVKIKDLKTSNNRLLNKRRKKQAGSSSASQGCNNQ
modifications: left off: small tags and cut ends
B3: MYLK2 (protein)
chain: MATENGAVELGIQNPSTDKAPKGPTGERPLAAGKDPGPPDPKKAPDPPTLKKDAKAPASEKGDGTLAQPSTSSQGPKGEGDRGGGPAEGSAGPPAALPQQTATPETSVKKPKAEQGASGSQDPGKPRVGKKAAEGQAAARRGSPAFLHSPSCPAIISSSEKLLAKKPPSEASELTFEGVPMTHSPTDPRPAKAEEGKNILAESQKEVGEKTPGQAGQAKMQGDTSRGIEFQAVPSEKSEVGQALCLTAREEDCFQILDDCPPPPAPFPHRMVELRTGNVSSEFSMNSKEALGGGKFGAVCTCMEKATGLKLAAKVIKKQTPKDKEMVLLEIEVMNQLNHRNLIQLYAAIETPHEIVLFMEYIEGGELFERIVDEDYHLTEVDTMVFVRQICDGILFMHKMRVLHLDLKPENILCVNTTGHLVKIIDFGLARRYNPNEKLKVNFGTPEFLSPEVVNYDQISDKTDMWSMGVITYMLLSGLSPFLGDDDTETLNNVLSGNWYFDEETFEAVSDEAKDFVSNLIVKDQRARMNAAQCLAHPWLNNLAEKAKRCNRRLKSQILLKKYLMKRRWKKNFIAVSAANRFKKISSSGALMALGV
modifications: left off: a dimerising Fc or GST
B4: MAPK14(p38alpha) (protein)
chain: MSQERPTFYRQELNKTIWEVPERYQNLSPVGSGAYGSVCAAFDTKTGLRVAVKKLSRPFQSIIHAKRTYRELRLLKHMKHENVIGLLDVFTPARSLEEFNDVYLVTHLMGADLNNIVKCQKLTDDHVQFLIYQILRGLKYIHSADIIHRDLKPSNLAVNEDCELKILDFGLARHTDDEMTGYVATRWYRAPEIMLNWMHYNQTVDIWSVGCIMAELLTGRTLFPGTDHINQLQQIMRLTGTPPAYLINRMPSHEARNYIQSLTQMPKMNFANVFIGANPLAVDLLEKMLVLDSDKRITAAQALAHAYFAQYHDPDDEPVADPYDQSFESRDLLIDEWKSLTYDEVISFVPPPLDQEEMES
modifications: left off: a dimerising Fc or GST
B5: NEK2 (protein)
chain: MPSRAEDYEVLYTIGTGSYGRCQKIRRKSDGKILVWKELDYGSMTEAEKQMLVSEVNLLRELKHPNIVRYYDRIIDRTNTTLYIVMEYCEGGDLASVITKGTKERQYLDEEFVLRVMTQLTLALKECHRRSDGGHTVLHRDLKPANVFLDGKQNVKLGDFGLARILNHDTSFAKTFVGTPYYMSPEQMNRMSYNEKSDIWSLGCLLYELCALMPPFTAFSQKELAGKIREGKFRRIPYRYSDELNEIITRMLNLKDYHRPSVEEILENPLIADLVADEQRRNLERRGRQLGEPEKSQDSSPVLSELKLKEIQLQERERALKAREERLEQKEQELCVRERLAEDKLARAENLLKNYSLLKERKFLSLASNPELLNLPSSVIKKKVHFSGESKENIMRSENSESQLTSKSKCKDLKKRLHAAQLRAQALSDIEKNYQLKSRQILGMR
modifications: left off: small tags and cut ends
B6: PAK1 (protein)
chain: MSNNGLDIQDKPPAPPMRNTSTMIGAGSKDAGTLNHGSKPLPPNPEEKKKKDRFYRSILPGDKTNKKKEKERPEISLPSDFEHTIHVGFDAVTGEFTGMPEQWARLLQTSNITKSEQKKNPQAVLDVLEFYNSKKTSNSQKYMSFTDKSAEDYNSSNALNVKAVSETPAVPPVSEDEDDDDDDATPPPVIAPRPEHTKSVYTRSVIEPLPVTPTRDVATSPISPTENNTTPPDALTRNTEKQKKKPKMSDEEILEKLRSIVSVGDPKKKYTRFEKIGQGASGTVYTAMDVATGQEVAIKQMNLQQQPKKELIINEILVMRENKNPNIVNYLDSYLVGDELWVVMEYLAGGSLTDVVTETCMDEGQIAAVCRECLQALEFLHSNQVIHRDIKSDNILLGMDGSVKLTDFGFCAQITPEQSKRSTMVGTPYWMAPEVVTRKAYGPKVDIWSLGIMAIEMIEGEPPYLNENPLRALYLIATNGTPELQNPEKLSAIFRDFLNRCLEMDVEKRGSAKELLQHQFLKIAKPLSSLTPLIAAAKEATKNNH
modifications: left off: a dimerising Fc or GST
B7: MAPKAPK5(PRAK) (protein)
chain: MSEESDMDKAIKETSILEEYSINWTQKLGAGISGPVRVCVKKSTQERFALKILLDRPKARNEVRLHMMCATHPNIVQIIEVFANSVQFPHESSPRARLLIVMEMMEGGELFHRISQHRHFTEKQASQVTKQIALALRHCHLLNIAHRDLKPENLLFKDNSLDAPVKLCDFGFAKIDQGDLMTPQFTPYYVAPQVLEAQRRHQKEKSGIIPTSPTPYTYNKSCDLWSLGVIIYVMLCGYPPFYSKHHSRTIPKDMRRKIMTGSFEFPEEEWSQISEMAKDVVRKLLKVKPEERLTIEGVLDHPWLNSTEALDNVLPSAQLMMDKAVVAGIQQAHAEQLANMRIQDLKVSLKPLHSVNNPILRKRKLLGTKPKDSVYIHDHENGAEDSNVALEKLRDVIAQCILPQAGENEDEKLNEVMQEAWKYNRECKLLRDTLQSFSWNGRGFTDKVDRLKLAEIVKQVIEEQTTSHESQ
modifications: left off: small tags and cut ends
B8: MAPK13(p38delta) (protein)
chain: MSLIRKKGFYKQDVNKTAWELPKTYVSPTHVGSGAYGSVCSAIDKRSGEKVAIKKLSRPFQSEIFAKRAYRELLLLKHMQHENVIGLLDVFTPASSLRNFYDFYLVMPFMQTDLQKIMGMEFSEEKIQYLVYQMLKGLKYIHSAGVVHRDLKPGNLAVNEDCELKILDFGLARHADAEMTGYVVTRWYRAPEVILSWMHYNQTVDIWSVGCIMAEMLTGKTLFKGKDYLDQLTQILKVTGVPGTEFVQKLNDKAAKSYIQSLPQTPRKDFTQLFPRASPQAADLLEKMLELDVDKRLTAAQALTHPFFEPFRDPEEETEAQQPFDDSLEHEKLTVDEWKQHIYKEIVNFSPIARKDSRRRSGMKL
modifications: left off: small tags and cut ends
B9: NEK3 (protein)
chain: MDDYMVLRMIGEGSFGRALLVQHESSNQMFAMKEIRLPKSFSNTQNSRKEAVLLAKMKHPNIVAFKESFEAEGHLYIVMEYCDGGDLMQKIKQQKGKLFPEDMILNWFTQMCLGVNHIHKKRVLHRDIKSKNIFLTQNGKVKLGDFGSARLLSNPMAFACTYVGTPYYVPPEIWENLPYNNKSDIWSLGCILYELCTLKHPFQANSWKNLILKVCQGCISPLPSHYSYELQFLVKQMFKRNPSHRPSATTLLSRGIVARLVQKCLPPEIIMEYGEEVLEEIKNSKHNTPRKKTNPSRIRIALGNEASTVQEEEQDRKGSHTDLESINENLVESALRRVNREEKGNKSVHLRKASSPNLHRRQWEKNVPNTALTALENASILTSSLTAEDDRGGSVIKYSKNTTRKQWLKETPDTLLNILKNADLSLAFQTYTIYRPGSEGFLKGPLSEETEASDSVDGGHDSVILDPERLEPGLDEEDTDFEEEDDNPDWVSELKKRAGWQGLCDR
modifications: left off: a dimerising Fc or GST
B10: EPHA5 (protein)
chain: SGSCCECGCGRASSLCAVAHPSLIWRCGYSKAKQDPEEEKMHFHNGHIKLPGVRTYIDPHTYEDPNQAVHEFAKEIEASCITIERVIGAGEFGEVCSGRLKLPGKRELPVAIKTLKVGYTEKQRRDFLGEASIMGQFDHPNIIHLEGVVTKSKPVMIVTEYMENGSLDTFLKKNDGQFTVIQLVGMLRGISAGMKYLSDMGYVHRDLAARNILINSNLVCKVSDFGLSRVLEDDPEAAYTTRGGKIPIRWTAPEAIAFRKFTSASDVWSYGIVMWEVVSYGERPYWEMTNQDVIKAVEEGYRLPSPMDCPAALYQLMLDCWQKERNSRPKFDEIVNMLDKLIRNPSSLKTLVNASCRVSNLLAEHSPLGSGAYRSVGEWLEAIKMGRYTEIFMENGYSSMDAVAQVTLEDLRRLGVTLVGHQKKIMNSLQEMKVQLVNGMVPL
modifications: left off: a dimerising Fc or GST
B11: MAPK8(JNK1) (protein)
chain: MSRSKRDNNFYSVEIGDSTFTVLKRYQNLKPIGSGAQGIVCAAYDAILERNVAIKKLSRPFQNQTHAKRAYRELVLMKCVNHKNIIGLLNVFTPQKSLEEFQDVYIVMELMDANLCQVIQMELDHERMSYLLYQMLCGIKHLHSAGIIHRDLKPSNIVVKSDCTLKILDFGLARTAGTSFMMTPYVVTRYYRAPEVILGMGYKENVDLWSVGCIMGEMVCHKILFPGRDYIDQWNKVIEQLGTPCPEFMKKLQPTVRTYVENRPKYAGYSFEKLFPDVLFPADSEHNKLKASQARDLLSKMLVIDASKRISVDEALQHPYINVWYDPSEAEAPPPKIPDKQLDEREHTIEEWKELIYKEVMDLEERTKNGVIRGQPSPLAQVQQ
modifications: left off: small tags and cut ends

Tested on: kinases of Table 6 on Myelin Basic Protein (MBP)
Assay: Kinase assay using MBP substrate, ProQ Diamond stain (Table 6)
Type: biochemical
Settings: kinase printed on MBP-coated slide; 20 uM ATP, 30° C.; ProQ Diamond Microarray Stain; graded Strong/Weak/Negative
How it was run: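 Reactions ran at 30° C. with 20 uM ATP, 4 mM MgCl2 and 5% DMSO in HEPES pH 7.5, inhibitor added or omitted. Kinases had been arrayed onto slide-bound dephosphorylated bovine MBP; phospho-signal read after ProQ Diamond staining.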

| Molecule | MBP Kinase Activity |
| --- | --- |
| B1 | Weak |
| B2 | Strong |
| B3 | Negative |
| B4 | Strong |
| B5 | Strong |
| B6 | Negative |
| B7 | Strong |
| B8 | Weak |
| B9 | Negative |
| B10 | Negative |
| B11 | Negative |
